For three proteins, Km, Vmax and Vmax/Km results are on record in PMC6515479, “An Investigation on Glucuronidation Metabolite Identification, Isozyme Contribution, and Species Differences of GL-V9 In Vitro and In Vivo” (Molecules, 2019).

Holding throughout (type): in vitro ADME, human
Substrate in data set [1]: COc1c(OCCCCN2CCCC2)cc(O)c2c(=O)cc(-c3ccccc3)oc12
The data set is described as follows: Recombinant enzyme kinetics of GL-V9 glucuronidation, rUGT1A9. As to conditions: other: formation of 5-O-glucuronide GL-V9, rUGT1A9, protein 0.06 mg/mL, 1 h at 37 °C, mean ± SD, n = 3, pH 7.4.

Substrate in data set [2]: COc1c(OCCCCN2CCCC2)cc(O)c2c(=O)cc(-c3ccccc3)oc12
In words: Recombinant enzyme kinetics of GL-V9 glucuronidation, rUGT1A8. The conditions noted are these: other: formation of 5-O-glucuronide GL-V9, rUGT1A8, protein 0.06 mg/mL, 1 h at 37 °C, mean ± SD, n = 3, pH 7.4. As to the method: [The source words this procedure for another target and says it was used here with some conditions changed.] (§1) The composition of the incubation system (200 μL) contained liver microsomes of different species (0.1 mg protein/mL), 5 mM saccharolactone (D-saccharic acid 1,4-lactone monohydrate), 10 mM MgCl2, alamethicin (50 μg/mg protein), Tris-HCl buffer (50 mM, pH 7.4) and GL-V9 (1 μM). After 5 min of preincubation at 37 °C, UDPGA (5 mM) was added to initiate the phase II reaction. Control incubation samples were performed without UDPGA or without substrates (GL-V9). The reaction was terminated by addition of ice-cold methanol (three volumes) after incubation for 1 h at 37 °C. Samples were vortexed, centrifuged at 21,500× g for 10 min and then stored at 4 °C until HPLC-UV-TripleTOF analysis. To confirm that these metabolites are conjugates resulting from glucuronidation reaction, enzymatic hydrolysis of samples was processed. β-glucuronidase (100 KU, Sigma) was added and the hydrolysis was performed overnight at 37 °C. The control samples were carried out without β-glucuronidase under the same condition.
(§2) Rates of the glucuronidation of GL-V9 were described as amounts of glucuronides formed per minute per milligram (pmol/min/mg). The calculation model of kinetic parameters was selected by the profile of Eadie-Hofstee plots. It often includes three possibilities: (1) the Eadie-Hofstee plot was linear, the formation rates of glucuronides (V) at different substrate concentrations (C) were fit to the standard Michaelis-Menten calculation of GraphPad Prism (version 6.02, GraphPad Software Inc., Guildford, Surrey, UK); (2) the Eadie-Hofstee plot was atypical kinetic-autoactivation, the rates and concentration were fit with the allosteric sigmoidal function of GraphPad Prism; (3) the Eadie-Hofstee plot was atypical kinetic-biphasic, the rates and concentration were fit with the […] of GraphPad Prism.

Substrate in data set [3]: COc1c(OCCCCN2CCCC2)cc(O)c2c(=O)cc(-c3ccccc3)oc12
In words: Recombinant enzyme kinetics of GL-V9 glucuronidation, rUGT1A7. The conditions noted are these: other: formation of 5-O-glucuronide GL-V9, rUGT1A7, protein 0.05 mg/mL, 1 h at 37 °C, mean ± SD, n = 3, pH 7.4. As for the experimental part: [The source words this procedure for another target and says it was used here with some conditions changed.] as §1, §2

B1: rUGT1A9 (Homo sapiens) (protein)
chain: GKLLVVPMDGSHWFTMRSVVEKLILRGHEVVVVMPEVSWQLGRSLNCTVKTYSTSYTLEDLDREFKAFAHAQWKAQVRSIYSLLMGSYNDIFDLFFSNCRSLFKDKKLVEYLKESSFDAVFLDPFDNCGLIVAKYFSLPSVVFARGILCHYLEEGAQCPAPLSYVPRILLGFSDAMTFKERVRNHIMHLEEHLLCHRFFKNALEIASEILQTPVTEYDLYSHTSIWLLRTDFVLDYPKPVMPNMIFIGGINCHQGKPLPMEFEAYINASGEHGIVVFSLGSMVSEIPEKKAMAIADALGKIPQTVLWRYTGTRPSNLANNTILVKWLPQNDLLGHPMTRAFITHAGSHGVYESICNGVPMVMMPLFGDQMDNAKRMETKGAGVTLNVLEMTSEDLENALKAVINDKSYKENIMRLSSLHKDRPVEPLDLAVFWVEFVMRHKGAPHLRPAAHDLTWYQYHSLDVIGFLLAVVLTVAFITFKCCAYGYRKCLGKKGRVKKAHKSKTH
notes: purchased Corning (Woburn, MA, USA)
On to B1, for which, in data set [1], the Km is 4.72 ± 0.28 µM and the Vmax was determined as 0.000148 µmol/min/mg.

B2: rUGT1A8 (Homo sapiens) (protein)
chain: GKLLVVPMDGSHWFTMQSVVEKLILRGHEVVVVMPEVSWQLGKSLNCTVKTYSTSYTLEDLDREFMDFADAQWKAQVRSLFSLFLSSSNGFFNLFFSHCRSLFNDRKLVEYLKESSFDAVFLDPFDACGLIVAKYFSLPSVVFARGIACHYLEEGAQCPAPLSYVPRILLGFSDAMTFKERVRNHIMHLEEHLFCQYFSKNALEIASEILQTPVTAYDLYSHTSIWLLRTDFVLDYPKPVMPNMIFIGGINCHQGKPLPMEFEAYINASGEHGIVVFSLGSMVSEIPEKKAMAIADALGKIPQTVLWRYTGTRPSNLANNTILVKWLPQNDLLGHPMTRAFITHAGSHGVYESICNGVPMVMMPLFGDQMDNAKRMETKGAGVTLNVLEMTSEDLENALKAVINDKSYKENIMRLSSLHKDRPVEPLDLAVFWVEFVMRHKGAPHLRPAAHDLTWYQYHSLDVIGFLLAVVLTVAFITFKCCAYGYRKCLGKKGRVKKAHKSKTH
notes: as for B1
For B2, in data set [2], the Km worked out at 13.92 ± 1.05 µM, the Vmax stood at 5.06e-05 µmol/min/mg and the Vmax/Km was 3.64 µL/min/mg.

B3: rUGT1A7 (Homo sapiens) (protein)
chain: GKLLVVPMDGSHWFTMQSVVEKLILRGHEVVVVMPEVSWQLGRSLNCTVKTYSTSYTLEDQDREFMVFADARWTAPLRSAFSLLTSSSNGIFDLFFSNCRSLFNDRKLVEYLKESCFDAVFLDPFDACGLIVAKYFSLPSVVFARGIFCHYLEEGAQCPAPLSYVPRLLLGFSDAMTFKERVWNHIMHLEEHLFCPYFFKNVLEIASEILQTPVTAYDLYSHTSIWLLRTDFVLEYPKPVMPNMIFIGGINCHQGKPVPMEFEAYINASGEHGIVVFSLGSMVSEIPEKKAMAIADALGKIPQTVLWRYTGTRPSNLANNTILVKWLPQNDLLGHPMTRAFITHAGSHGVYESICNGVPMVMMPLFGDQMDNAKRMETKGAGVTLNVLEMTSEDLENALKAVINDKSYKENIMRLSSLHKDRPVEPLDLAVFWVEFVMRHKGAPHLRPAAHDLTWYQYHSLDVIGFLLAVVLTVAFITFKCCAYGYRKCLGKKGRVKKAHKSKTH
notes: as for B1
B3: in data set [3], the Km was 3.25 ± 0.29 µM, the Vmax was 3.11e-05 µmol/min/mg and the Vmax/Km turned out to be 9.58 µL/min/mg.
